Reference: patent publication EP2727942A1

Assays:
[1] = target: recombinant Fc chimeric conjugate of human HER3 (human) (UniProt P21860); test: ELISA, coated antigen, B-cell supernatant, IgG 1170,2 ng/ml
[2] = target: recombinant Fc chimeric conjugate of human EGFR (human) (UniProt P00533); test: as above
[3] = target: recombinant Fc chimeric conjugate of human EGFR (human) (UniProt P00533); test: ELISA, coated antigen, B-cell supernatant, IgG 1912,4 ng/ml
[4] = target: recombinant Fc chimeric conjugate of human HER2 (human) (UniProt P04626); test: as above
[5] = target: recombinant Fc chimeric conjugate of human HER3 (human) (UniProt P21860); test: ELISA, coated antigen, B-cell supernatant, IgG 146,1 ng/ml
[6] = target: recombinant Fc chimeric conjugate of human EGFR (human) (UniProt P00533); test: as above
[7] = target: recombinant Fc chimeric conjugate of human HER3 (human) (UniProt P21860); test: ELISA, coated antigen, B-cell supernatant, IgG 565,3 ng/ml
[8] = target: recombinant Fc chimeric conjugate of human EGFR (human) (UniProt P00533); test: as above
[9] = target: recombinant Fc chimeric conjugate of human HER3 (human) (UniProt P21860); test: ELISA, coated antigen, B-cell supernatant, IgG 59,9 ng/ml
[10] = target: recombinant Fc chimeric conjugate of human EGFR (human) (UniProt P00533); test: as above
[11] = target: recombinant Fc chimeric conjugate of human HER3 (human) (UniProt P21860); test: ELISA, coated antigen, B-cell supernatant, IgG 250,4 ng/ml
[12] = target: recombinant Fc chimeric conjugate of human EGFR (human) (UniProt P00533); test: as above
[13] = target: recombinant Fc chimeric conjugate of human EGFR (human) (UniProt P00533); test: ELISA, coated antigen, B-cell supernatant, IgG 1143,3 ng/ml
[14] = target: recombinant Fc chimeric conjugate of human HER2 (human) (UniProt P04626); test: as above

Chain of UniProt P21860 (P21860 20-643, change not shown): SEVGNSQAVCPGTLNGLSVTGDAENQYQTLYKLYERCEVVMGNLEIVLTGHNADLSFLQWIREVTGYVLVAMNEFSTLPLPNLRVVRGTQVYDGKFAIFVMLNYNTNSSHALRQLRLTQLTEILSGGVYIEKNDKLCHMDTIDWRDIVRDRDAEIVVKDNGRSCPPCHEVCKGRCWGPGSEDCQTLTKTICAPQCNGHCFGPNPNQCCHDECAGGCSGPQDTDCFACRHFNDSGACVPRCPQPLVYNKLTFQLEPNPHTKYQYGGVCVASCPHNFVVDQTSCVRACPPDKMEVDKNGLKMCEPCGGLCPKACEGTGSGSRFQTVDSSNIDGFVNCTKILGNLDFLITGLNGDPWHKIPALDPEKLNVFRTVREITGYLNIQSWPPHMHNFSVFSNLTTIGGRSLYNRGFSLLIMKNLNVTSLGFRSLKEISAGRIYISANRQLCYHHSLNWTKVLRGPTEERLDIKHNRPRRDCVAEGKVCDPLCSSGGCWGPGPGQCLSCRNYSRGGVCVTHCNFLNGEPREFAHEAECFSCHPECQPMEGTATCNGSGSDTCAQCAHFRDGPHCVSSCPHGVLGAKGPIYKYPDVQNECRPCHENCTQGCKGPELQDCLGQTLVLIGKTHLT

B1: Antibody 32 (antibody, V domains shown)
VH: QSVEESGGRLVTPGTPLTLTCTVSGFSLSSYDMSWVRQAPGKGLEWIGFIDGDSNTYDATWAKGRFTISKTSTTVDLKITSPTTEDTATYFCTRGFNLWGQGTLVTVSS
VL: DVVMTQTPASVSEPVGGTVTIKCQASQSISSYLAWYQQKPGQPPKLLIYKASTLASGVSSRFKGSGSGTEFTLTISDLECADAATYYCQCSAGGRSGIGGFGGGTEVVVK
**Q.** How did the Optical density (OD) [1] turn out when B1 was run?
**A.** 2.3 OD

**Q.** And the Optical density (OD) [2]?
**A.** 0.3 OD

B2: Antibody 6 (antibody, V domains shown)
VH: QSVEESGGRLVTPGTPLTLTCTVSGFSLSSYTMGWVRQAPGKGLEYIGIINTGGYTYYASWAKGRFTISRTSTTVDLSMTSLTTEDTATYFCARVYPGSSCDLWGQGTLVTVSS
VL: DVVMTQTPASVSEPVGGTVTIKCQASQSISSSYLSWYQQKPGQPPKLLIYRASTLESGVPSRFKGSGSGTEFTLTISDLECADAATYYCQCTDYAGSYVGGAFGGGTEVVVK
**Q.** What does the source list for B2?
**A.** Optical density (OD) [3]: 0.4 OD; Optical density (OD) [4]: 3.2 OD

B3: Antibody 52 (antibody, V domains shown)
VH: QSVEESGGRLVTPGTALTLTCTVSGFSLSSGDMSWVRQAPGKGLEWIGYIWSGVSTYYANWAKGRFTISKTSSTTVDLKMTSLTIEDTATYFCARVDFYSYVYSLWGPGTLVTVSS
VL: ALVMTQTPASVEAAVGGTVTIKCQASQSISSCLAWYQQKPGQPPKLLIYSASTLASGVPSRFKGSGSGTEYTLTISGVECADAATYYCQQHYTSNNIDNAFGGGTEVVVK
**Q.** For B3, which Optical density (OD) [5] is on record?
**A.** 2.1 OD

**Q.** And the Optical density (OD) [6]?
**A.** 2.7 OD

B4: Antibody 56 (antibody, V domains shown)
VH: QSLEESGGRLVTPGTPLTLTCTASGFSLSSYDLSWVRQAPGKGLEWIAYIWSGDKTYYANWAKGRFTISKTSSTTVDLKMTSLTTEDTATYFCATVNIYSYVYSLWGPGTLVTVSS
VL: AYDMTQTPASVEVAVGGTVTIKCQASQSISTALAWYQQKSGQPPKLLIYLASTLASGVPSRFKGSGSGTEYTLTISGVECADAATYYCQQHYSSNNVDNAFGGGTEVVVK
**Q.** Which Optical density (OD) [7] does the source give for B4 here?
**A.** 3.1 OD

**Q.** And the Optical density (OD) [8]?
**A.** 3.4 OD

B5: Antibody 60 (antibody, V domains shown)
VH: QSLEESGGRLVTPGGSLTLTCTVSGSDISSYDMSWVRQAPGKGLEWIGYIWSGTTTYYANWAKGRFTISKTSSTTVDLKMTSLTTEDTATYFCATVNIYTYVYSLWGPGTLVTVSS
VL: AYDMTQTPASVEVAVGGTVTIKCQASQSISTALAWYQQKSGQPPKLLIYLASTLASGVPSRFKGSGSGTEYTLTISGVECADAATYYCQQHYSGNNVDNAFGGGTEVVVK
**Q.** With B5 as the binder, how does the Optical density (OD) [9] read?
**A.** 1 OD

**Q.** What about the Optical density (OD) [10] of the same binder?
**A.** 2.8 OD

B6: Antibody 55 (antibody, V domains shown)
VH: QSLEESGGRLVTPGGSLTLTCTVSGSDISSYDMSWVRQAPGKGLEWIGYIWSGTTIYYASWPKGRFTISKTSSTTVDLKMTSLTTEDTATYFCAAINIYTYVYSLWGPGTLVTVSS
VL: AYDMTQTPASVEAAVGGTVTIKCQASESIYSSLAWYQQKSGQPPKLLIYLASTLASGVPSRFKGSGSGTDYTLTISGVECADAATYYCQQHYSGSNVDNAFGGGTEVVVK
**Q.** How did the Optical density (OD) [11] turn out when B6 was run?
**A.** 3.3 OD

**Q.** And the Optical density (OD) [12]?
**A.** 2.7 OD

B7: Antibody 34 (antibody, V domains shown)
VH: QEQLVESGGGLVQPEGSLTLTCKASGFSFSSGYYMCWVRQAPGKGLEWIACIYADSSESTYYASWAKGRFTISKTSSTTVTLQVTSLTAADTATYFCARWGTVAGYSTFNLWGPGTLVTVSS
VL: DVVMTQTPASVSEPVGGTVTIKCQASQSISTALAWYQQKPGQPPKLLIYFTSTLASGVSSRFKGSGSGAEFTLTISDLECADAATYYCQGYYYVTNFPFGGGTEVVVK
**Q.** Which results are given for B7?
**A.** Optical density (OD) [13]: 0.3 OD; Optical density (OD) [14]: 3.1 OD
